The values that follow come from publication PMC3338121.

This experiment deals with Recombinant soluble empty (peptide free) HLA-DR1 (human). Briefly: competitive peptide binding assay.

One may read the Kd as the constant that tells how readily two partners part at equilibrium. Consider “P2,10 SG peptide (HA_(306–319) substituted at P2 and P10), unlabeled”, for which the Kd is 373 nM. As to “P2,3,7,10 SDPG peptide (HA_(306–319) substituted at P2, P3, P7 and P10), unlabeled”, the equilibrium dissociation constant (Kd) was 313000 nM.

For “P2,7,10 SPG peptide (HA_(306–319) substituted at P2, P7 and P10), unlabeled”, the Kd turned out to be 605 nM. The result for “P2 S peptide (HA_(306–319) substituted at P2), unlabeled” reads 97.2 nM.
